Measured values taken from the DeepSol protein solubility set.

Assay: soluble on expression in E. coli; label from the status in PepcDB or PDB records

Row | Sequence | soluble on expression in E. coli
1 | MGSDKIHHHHHHMDTQRIKDDEDAIRSALTSLKTATGIPVTMFATVLQDNRLQITQWVGLRTPALQNLVIEPGVGVGGRVVATRRPVGVSDYTRANVISHEKDSAIQDEGLHSIVAVPVIVHREIRGVLYVGVHSAVRLGDTVIEEVTMTARTLEQNLAINSALRRNGVPDGRGSLKANRVMNGAEWEQVRSTHSKLRMLANRVTDEDLRRDLEELCDQMVTPVRIKQTTKLSARELDVLACVALGHTNVEAAEEMGIGAETVKSYLRSVMRKLGAHTRYEAVNAARRIGALP | not soluble
2 | MSAKNRLDVFDKKTRDVIESDLVKMRGYKRNIGSRNQEMTMKNVEKKVEQMGAKNEEMFSMISKIMQKPNSTGHLQWDSQTLADLMNKSDSFDDDQESLNMPRSSESSAMSVRNRTLERQSEPVRKSPKAAPKVKNEAGITASYVTSEMSDRRSIDEVMVRAAKNAKREEKFDLGFFKFISLAGHILESSCKHSEDQEDPSCLKCKYDRELKLEERPEMVFARNSLTIQFGRLGSIEFNALDALKMVCADRLPDVKVGASTVWQSARQDRIQQISEHQKPFDWTYTTHYKGTVTGCQVTPTTERIDMERLKRRDEILFSSSITLFEDELADHGIAQLLARVRVMRGYFFVLLRFYMRVDNVLLRVCDTRIVGNEFDGHVIREWQLREAKYGNLGHVDPEELLDVDRAWMHLPVVEEHFDRVSVDRERLF | not soluble
3 | MDKEETKTKPRLLRYEEKKYEDVKPLETQPAEIAEKETLEYKTVRTFSESLKSEKTEDYLRESIIQQHMVSPEPASLKEKGKSRRKKDQTHACPNVRKARPVSYDRTEPKDDDVIRNIIRLREKLGWQTILPQHSLKYGSSKIAIQKITLKKPLEDDGEFVYCLPRKSPKSLYNPYDLQVINIVGSVKE | soluble
4 | MIIATAGHVDHGKTTLLQAITGVNADRLPEEKKRGMTIDLGYAYWPQPDGRVLGFIDVPGHEKFLSNMLAGVGGIDHALLVVACDDGVMAQTREHLQILQLTGNLQLTVALTKADRVDEARIGEVREEVLAALDNYGFADTVLFVTAANEGRGIAELRAHLQQLPARSHAAQHRFRLAIDRAFTVKGAGLVVTGTALSGEVNVGDTLWLTGVNTPMRVRSLHAQNQPTDHAYAGQRIALNIAGDAEKEQLNRGDWLLSDAPVGEAFSRVIVSLALHAPLSQWQPLHIHHAASHVTGRVSLLEGGLAELIFDTPLWLADNDRLVLRDISARATLAGARVVTLKAPRRGKRKPDYLHWLSTLAAAQDDSAALAIHLERGAVNLPDFGWARQLNPLGMRQLIEQHGFIQAGDNLLSAPVAARWQRKILDTLATYHEQHRDEPGPGRERLRRMALPMEDEALVLMLIERMRDDGLIHSHHGWLHLPDHKAGFSDEQQAVWQKVEPLFGDEPWWVRDLAKETGTEEQLMRLVLRQAAQQGIITAIVKDRYYRNDRIVAFANMIRELDQERGSTCAADFRDRLNVGRKLAIQILEYFDRIGFTRRRGNDHLLRDALLFPQKE | not soluble
5 | MGSHHHHHHRTPSDKPVAHVVANPQAEGQLQWLNRRANALLANGVELRDNQLVVPSEGLYLIYSQVLFKGQGCPSTHVLLTHTISRIAVSYQTKVNLLSAIKSPCQRETPEGAEAKPWYEPIYLGGVFQLEKGDRLSAEINRPDYLLFAESGQVYFGIIAL | soluble
6 | MSRFQTLTPASLSREAFIEAFADIYEHSPWVAEKAYDLGIDDSLNDIEGLHQRMADILLSASREAQLALINAHPDLAGKAAIRGELTASSTSEQAGAGIHECSAEEFARFTELNDAYKARFGFPFIKAVKGSNRHQILAAFEERIQHSADEEFATALAEINKIALFRLQQLLEHHHHHH | soluble
7 | MAVVRRAVAARGLQMIAKPLTVVPGFDVWPGLLDISAQRALVEAVLAGAEQAPFSNYRTAYGKPMSVAMTALGSLGWTSDARGYRYVDRHPETGRPWPDMPPALLDLWTVLGDPETPPDSCLVNLYRDGARMGLHQDRDEADPRFPVLSISLGDTAVFRIGGVNRKDPTRSLRLASGDVCRLLGPARLAFHGVDRILPGSSSLVPGGGRINLTLRRARTALEHHHHHH | not soluble
8 | GRHLFVLEREAKLKDYLATADITRVEKGDTKFGVVTAGTCYPYLREVLPNATVLKLGASWPLPDTLLREFCASVDQVFVVEELEPIIEKEVASLGIKVEGKRLFPRAGEFSPEVVRAGFVQAGLLPAPPSYNAWVPEPVVRPPVLCAGCPHTSSFLAVRASGARVAGDIGCYTLAVLDPLRGIDTCVAMGSSIGNAIGMAKAGEAKPVVATIGDSTFLHAGLPALIDAVYNQANIAVVLLDNHITAMTGGQEH | not soluble
9 | MGGSHHHHHHGMASLGMIKNSLFGSVETWPWQVLSKGDKEEVAYEERACEGGKFATVEVTDKPVDEALREAMPKVAKYAGGTNDKGIGMGMTVPISFAVFPNEDGSLQKKLKVWFRIPNQFQSDPPAPSDKSVKIEEREGITVYSMQFGGYAKEADYVAQATRLRAALEGTATYRGDIYFCTGYDPPMKPYGRRNEIWLLKT | not soluble
10 | MGSDKIHHHHHHMAQDIRVFKSKRDIETAVIQLILEEDFSKLTIQQICQKALVSRSTFYSHYLDKYDVVEQLVAKTITQLETIFSQKYQSQVSPENLKDYLADIYQFYQENARLLKALLKTPLTGTGNFEEAFSKLCQTYINHLAATTKDNDHLPPQLLAEIFTANVVTLMKWIIEHGPSENVTHFADWLHDLFLQYLQE | not soluble
11 | AEIYNKDGNKLDLYGKIDGLHYFSDDKDVDGDQTYMRLGVKGETQINDQLTGYGQWEYNVQANNTESSSDQAWTRLAFAGLKFGDAGSFDYGRNYGVVYDVTSWTDVLPEFGGDTYGSDNFLQSRANGVATYRNSDFFGLVDGLNFALQYQGKNGSVSGEGATNNGRGALKQNGDGFGTSVTYDIFDGISAGFAYANSKRTDDQNQLLLGEGDHAETYTGGLKYDANNIYLATQYTQTYNATRAGSLGFANKAQNFEVAAQYQFDFGLRPSVAYLQSKGKDLNGYGDQDILKYVDVGATYYFNKNMSTYVDYKINLLDDNSFTRSAGISTDDVVALGLVYQF | soluble
12 | MGSDKIHHHHHHMMENSLNIIEKMNPNQKINYDRVFQKVRESWERDSVRPKILLHSCCAPCSTYSLEYLTQSADVTIYFANSNIHPSTEYTRRKMVQEQFVKDFNERTGNNVQFIAAEYEPNVFLQMVRQKHLENEPEGGKRCTSCFEMRLDIVAEKALELGFDYFGSALTLSPKKNSQLINEIGLDIQKIYDVNYLPSDFKKNNGYKRSVEMCKEYDVYRQCYCGCIFAAKAQGIDLKEQNREAIKFIRNQS | not soluble
13 | MIRLAPLITADVDTTTLPGGKASDAAQDFLALLSEALAGETTTDKAAPQLLVATDKPTAKGEPLVSDILSDAQQADLLIPVDETPPVINDEQSTLTPLTTAQTMTLAAVADKNTTKDEKADDLNEDVTASLSALFAMLPGFDNTPKVTDAPSTVLPAEKPTLFTKLTSAQLTTAQPDDAPGTPAQPLTPLVAEAQSKAEVISTPSPVTADASPLITPHQTQPLPTVAAPVLSAPLGSHEWQQSLSQHISLFTRQGQQSAELRLHPQDLGEVQISLKVDDNQAQIQMISPHQHVRAALEAALPVLRTQLAESGIQLGQSNISGESFSGQQQAASQQQQSQRTANHEPLAGEDDDTLPVPVSLQGRVTGNSGVDIFA | soluble
14 | MKTLPVLPGQAASSRPSPVEIWQILLSRLLDQHYGLTLNDTPFADERVIEQHIEAGISLCDAVNFLVEKYALVRTDQPGFSACTRSQLINSIDILRARRATGLMTRDNYRTVNNITLGKYPEAK | soluble
15 | MDISSTEIWDAIRRNSFLLYYQPKVDAKTNELIGFEGLIRLKTATAILAPADFFEDIALLNATREMQDFVAETAIEQINQLGGRFSISINIPAHYVVSSNYMTFLYDYVKEHLKYPECLEIEIIERGEITELAVADKNLRKIKKLGVTVSMDDFGKGYSSLAYLRSLPIDIVKTDMSFIALLKTDRKQQIIIQAIVNLCHDLGGKVVTEGVEDIEQVKTLREMKVDYFQGYYFSRPLPMKEIKEKYSIV | not soluble
16 | MGSDKIHHHHHHMRGIGLTHAFADISGLAFDRLFMVTETDGTFITARQFPQMVKFIPAPLHDGLHLSAPDGSSAVVRFSDFATQAEPTEVWGNHFTALIAPAAVNQWLSGFFKRDVQLRWLGPQLTRRVKRHDAVPLSFADGYPYLLANEASLRDLQQRCPASVSIEQFRPNLVVTGAAAWDEDSWKVIRIGEVVFDVAKPCSRCIFTTISPERGQKHPAGEPLETLKRFRTALDNGDVDFGQNLIARNSGVIRVGDEVEILTRGPAKAYGAGESDDTPAPEAQQQATVAIEWQGQQFTGNNQQVLLEQLEQQGIRVPYSCRAGICGSCRIRLEEGEVSPLKKNAVAGDGTILACSCVPKTALRLAP | not soluble
17 | GSHSLRYFYTAVSRPGLGEPRFIAVGYVDDTEFVRFDSDAENPRMEPRARWMEREGPEYWEQQTRIAKEWEQIYRVDLRTLRGYYNQSEGGSHTIQEMYGCDVGSDGSLLRGYRQDAYDGRDYIALNEDLKTWTAADFAAQITRNKWERARYAERLRAYLEGTCVEWLSRYLELGKETLLRSDPPEAHVTLHPRPEGDVTLRCWALGFYPADITLTWQLNGEDLTQDMELVETRPAGDGTFQKWASVVVPLGKEQNYTCRVEHEGLPKPLSQRWEPLLEHHHHHH | soluble
18 | MVKIVKAQFHTAGKLYDFGAGDLDLKPGDKIIVETERGRSIATVVTPPREYEEAHVPEGLKTAIRIAEPSDLASAARNDAREQEAHAFCLRKIKERGMEMKLVKVEYLFDGSKAIFYFTADGRVDFRELVKDLAHQFHTRIEMRQIGVRDESKMIGGIGICGRELCCSSFLREFEPVSVKMAKEQNLALNPTKISGQCGRLLCCLGYEYETYCSLKKCLPKCGKVVKCGSTEGEVIKQNIIEGTVFVKTDDDRIVELKGESIKPEDISERPKSPRREGGTREREKEPQSSSDNQRREKPRDREQKPGDDGEQRRERDTKKNQDQQRGERGNRDRRGGKGRDKDKKEPKLEHHHHHH | soluble
19 | FSRAIDEHFVELDHMAMSAKLAVFRDELRGLGSEQQMRRREAELLRELARHPDLGLRLNGPDGNLWFERLPQPAHPGLPANRELGAPLEPGNDASPRLTVILDISHHQHFLQRMRQL | not soluble
20 | MQILNKILPQVEFAIPRPSFDSLSRNKLVKKILSVFNLKQRFPQKNFGCPVNINKIRDSVIDKIKDSNSGNQLFCWMSQERTTYVSSMINRSIDEMAIHNGVVLTSDNKRNIFAAIEKKFPDIKLDEKSAQTSISHTALNEIASSGLRAKILKRYSSDMDLFNTQMKDLTNLVSSSVYDKIFNESTKVLQIEISAEVLKAVYRQSNTNLEHHHHHH | not soluble
21 | MPDGGFKVEVEALRRYRDTLEDFKSQADTFSDLVDRADVGDESWGLVGLATKSSYTEALGQLRDLLDRMKQGLTNTGEKFTKAAELYASNDDQGAIQLGNYEIEVDKVDEVRPAGA | not soluble
22 | MGHHHHHHSHMRENNLHTVCEEAKCPNIHECWAVRRTATFMILGSVCTRACRFCAVKTGLPTELDLQEPERVADSVALMNLKHAVITAVARDDQKDGGAGIFAETVRAIRRKSPFTTIEVLPSDMGGNYDNLKTLMDTRPDILNHNIETVRRLTPRVRARATYDRSLEFLRRAKEMQPDIPTKSSIMIGLGETKEEIIEVMDDLLANNVDIMAIGQYLQPTKKHLKVQKYYHPDEFAELKEIAMQKGFSHCEAGPLVRSSYHADEQVNEASKKRQAQA | soluble
23 | MAEGDLSFFVMLARRESFSATAQDLGLSASAVSRRLARLEDRLGVRLLNRTTRKVSLTSEGEAYYGAALRLLDEIADLEHNLSQGRDRPAGLLRINATLGFGRTHLAPAIARFRRIHPAVEVQLLLTDAPLNLVEEGIDLGIRFGAPPFGRMVMRLLQRNRRFLCAAPSYLEARGVPQSLTDLQQHSCIVLRQDHDAYDVWRFDDIGEASPSAKVSGELSTNDGEIALAWVLDGQGIMLRSEWDIAQHVREGRLRLLLPHYRQTANIHAIYPERHNLSAKVRVFADHLAAHVRDADARMPLQLAAAELRAATARA | not soluble
